Results reported in paper PMC4046817.

Assays:
Conditions in all cases: EMSA/footprinting in LrpB binding buffer (ref. 27); composition, pH and temperature not given
[1] = molecular target: T1, Ss-LrpB (Sulfolobus solfataricus P2?) (UniProt Q7LX67); assay: EMSA
T1 sequence: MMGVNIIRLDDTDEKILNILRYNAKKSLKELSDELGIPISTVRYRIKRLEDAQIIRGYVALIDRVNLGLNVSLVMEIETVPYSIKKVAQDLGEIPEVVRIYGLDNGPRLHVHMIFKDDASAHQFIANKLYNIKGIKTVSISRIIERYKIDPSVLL

[2] = molecular target: T1, Ss-LrpB (Sulfolobus solfataricus P2?); assay: in-gel Cu-OP footprinting
[3] = system: Ss-LrpB (Sulfolobus solfataricus P2?); assay: EMSA

Row | Substance | binding [1] | other results
1 | ATATGTATATTCAAGCCATTTAGATGAGATAAGGAAAAATAAAGAATTCTATGATATGATTGCAGAGATACTACAAAGGTATTACAAAAAAATAGGCATAGAGAATGTGAATCAGTTGATACTAACTACTATAAAATAGTTCGTATGTCGAACCTTTCTTTACCGAATTCATTATATATCC (double strand) [Sso6904 fragment] | no binding | 
2 | CCTTTACTCTTCATGCGACCAATTTTAGTTGTAATTAATTTAACAATTTCTGGTCGCAAGGATTTTATGTTAAATTGAAACATTGGGTATCATTTATAAACGTTCAATTATTATAGAAAGATTCGTTTCGGTCGCATTGAGACTCGAACTTTCACACTTTTAAACAACTTCATAAAAACGAAGTTTGAAGTTCTCTATTTGATAATAATGTTTCACTGATTTCGTATCATATCGAAAAATATTTTTTATCTCTTATCGCTCTCCTTTCATC (double strand) [CRISPR4 (CRISPR B leader) fragment] |  | Kd [1]: 63 nM; binding [2]: binds
3 | CRISPR4 (CRISPR B leader) fragment |  | Kd [3]: 63 nM
4 | CGCATTAGAAGTAAAGAACGTAAATACTATGGCAGGAGTGTTATTACCAGCAAGGAACTTGGCATTAGCTAGGGAAATGGGGGCCGATGCGGTAGTTTCAGCTTGTCCTGGTTGTCACTATTCCTTATCTAGAACTCAATATTATCTGACTAAATACCCCAAATTAAGAGAAAAGACTAATATGTATTTAGAAAAAATGGGTACTAAGAATTATGATCTAAAGTTAATGCTAGTTCACGCTGTTGAATATATTTACAATA (double strand) [Sso1135 fragment] | binds | 
5 | AATCTTTCATTCCTCCTCTTATATGGATTATTACTGGTTTGTTTTCTTTTTCGGCTATTTGCAAAAATTTCTCCAGAACTTCTATTTGTTTTTTCCTAAGATCCTCGTCTTTTATCCAAAAGTAATCTAAACCGACTTCACTTATTATCTTCCCATACCTAGTTAATTCCAAACACTTATCAATCTCATTAACCTTATCCTTTACAAATTCTGGATG (double strand) [Sso0046 fragment] | no binding | 
6 | AGTATCTCGTTAATAACATCGTCTTTGTTACCTTCAAAGAACTCTGCATATATTATTTCGTCGTAAAGAATTAGATATCCTTTTGCACTAGTCAGCAGAGAATATTTATATCCTCTACATCCCTCACAATAACCTCTAACCTCTTTAACTAGTAAATGTTCAATCACAGATAGTTTAATATTTCCTTTTTCAATTATTTCTATATCATTATCTTTTTTAACTGATAATCTCTTAGCTAAATAATAAAGTGCGACCTGA (double strand) [Ssot36 fragment] | no binding | 
7 | Sso0049 Box 1 fragment |  | Kd [3]: 150 nM
8 | TGGAGAAGATGACGAAATGGTATTAAAGGAACATTCAATTACCTTATGTGATACAATAAAAAGGATGGGAGGGGATTGCGAGTTGCATATAATTCCGAAAATGAAGCACACACCTTTAGGGCAACAGTATCAAACAATTTGGAGTATAATTGAGGATTGGATAAAGAGGAATAGTTCTAGTTTTTAACCAGTTTGTGCCCAGTTCTCATACCTCATGAGTTCATTTCTACCCTTATCTTTAGCCACAATGTCTAGA (double strand) [Sso1433 fragment] | binds | 
